Data from paper PMC11289387, “Structure of the MlaC-MlaD complex reveals molecular basis of periplasmic phospholipid transport” (Nature Communications, 2024).

Biological target: the molecule itself
Assay: cryo-EM structure; cardiolipin-loaded MlaD^32-183 with MlaC-apo, cross-linked with 0.1% glutaraldehyde, 0.8 mg/mL in 20 mM Tris pH 8.0, 150 mM NaCl; 1:6 map at 4.35 Å, 2:6 map at 4.38 Å

B1: periplasmic domain of E. coli MlaD (residues 32-183), MlaD^32-183 (domain or fragment, UniProt P64604 32-183, looked up)
chain: TSIRTEPTYTLYATFDNIGGLKARSPVSIGGVVVGRVADITLDPKTYLPRVTLEIEQRYNHIPDTSSLSIRTSGLLGEQYLALNVGFEDPELGTAILKDGDTIQDTKSAMVLEDLIGQFLYGSKGDDNKNSGDAPAAAPGNNETTEPVGTTK
notes: synthesised (Genscript), cloned in pET26b; No cleavage of the His tag is described; In the functional rows of the MlaC mutants the wild-type MlaD stood as part of MlaFEDB in acceptor proteoliposomes, not as this fragment; source: E. coli BL21(DE3), purified (Ni-NTA, Superdex 200); lipid removed with β-OG and loaded with cardiolipin where stated
stoichiometry N: 6
